Source: patent US6686450

Test system: Cabin 1-14
Sequence (chain, as listed by the source): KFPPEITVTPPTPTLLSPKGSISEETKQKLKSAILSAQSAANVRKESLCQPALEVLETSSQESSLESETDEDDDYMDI

calcineurin (endogenous, Jurkat T cells)
dephosphorylation of ΔNF-AT1 (Western blot gel shift) upon ionomycin with or without PMA: Overexpression of Cabin 1-14 inhibited the dephosphorylation of ΔNF-AT 1 upon treatment with ionomycin in the presence or absence of PMA
